Laboratory results published in US20040209325.

Target: T1, bovine brain myelin basic protein (MBP, Sigma), P02687
T1 chain: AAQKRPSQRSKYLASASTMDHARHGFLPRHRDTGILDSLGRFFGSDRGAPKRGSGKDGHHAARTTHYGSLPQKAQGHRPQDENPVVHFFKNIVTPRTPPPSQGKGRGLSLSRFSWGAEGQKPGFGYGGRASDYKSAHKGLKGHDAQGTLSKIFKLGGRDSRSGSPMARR

B1: OsMAPK5a, endogenous protein from rice leaf extracts (protein)
chain: MDGAPVAEFRPTMTHGGRYLLYDIFGNKFEVTNKYQPPIMPIGRGAYGIVCSVMNFETREMVAIKKIANAFNNDMDAKRTLREIKLLRHLDHENIIGIRDVIPPPIPQAFNDVYIATELMDTDLHHIIRSNQELSEEHCQYFLYQILRGLKYIHSANVIHRDLKPSNLLLNANCDLKICDFGLARPSSESDMMTEYVVTRWYRAPELLLNSTDYSAADVWSVGCIFMELINRQPLFPGRDHMHQMRLITEVIGTPTDDELGFIRNEDARKYMRHLPQYPRRTFASMFPRVQPAALDLIERMLTFNPLQRITVEEALDHPYLERLHDIADEPICLEPFSFDFEQKALNEDQMKQLIFNEAIEMNPNIRY
- in-gel kinase assay of immunoprecipitated OsMAPK5a: the OsMAPK5a kinase activity was significantly induced by P. grisea infection
